Assay results: patent US5279956A, “Activated protein C polypeptides and anti-peptide antibodies, diagnostic methods and systems for inhibiting activated protein C” (The Scripps Research Institute, priority 1991, dated 1994)

Experiments:
[1] = molecular target: T1, APC (Homo sapiens, UniProt P04070); conditions: Heeb et al. 1990; cited from earlier work
T1 construct: begins at amino acid residue position 158 and ends at 419; The light chain is 155 amino acid residues in length; tissue Factor IX concentrate from Immuno AG, Vienna; thrombin from Enzyme Research Laboratories

[2] = molecular target: T1, APC; assay: Inhibition of APC by recombinant mutant (Arg358)-α1-antitrypsin, time course; format: biochemical; conditions: 18 nM APC and 100 nM α1-AT
Description: Since the number of amino acid residues involved in protease-protease inhibitor complexes is likely to be higher than the number of residues of APC involved in the cleavage of a small chromogenic substrate such as S-2366, the effect of peptide-(390-404) and peptide-(317-331) on the time course of inhibition of APC by a larger pseudosubstrate, recombinant mutant (Arg^358)-α1 -antitrypsin (α1 -AT) was evaluated. […] Heeb et al., J. Biol. Chem. 265:2365-2369 (1990).
Kinetic studies of inhibition of APC were performed with the higher affinity mutant α1 -AT pseudo-substrate. […] The change in absorbance was measured over time as described in the amidolytic assay. […]
Since the number of amino acid residues involved in protease-protease inhibitor complexes is likely to be higher than the number of residues of APC involved in the cleavage of a small chromogenic substrate such as S-2366, the effect of anti-(390-404) antibody on the time course of inhibition of APC by a larger pseudo-substrate, such as recombinant mutant (Arg^358)-α1 -AT was evaluated. […] The change in absorbance was measured over time as described in the amidolytic assay. […]

T1 sequence (P04070 212-461): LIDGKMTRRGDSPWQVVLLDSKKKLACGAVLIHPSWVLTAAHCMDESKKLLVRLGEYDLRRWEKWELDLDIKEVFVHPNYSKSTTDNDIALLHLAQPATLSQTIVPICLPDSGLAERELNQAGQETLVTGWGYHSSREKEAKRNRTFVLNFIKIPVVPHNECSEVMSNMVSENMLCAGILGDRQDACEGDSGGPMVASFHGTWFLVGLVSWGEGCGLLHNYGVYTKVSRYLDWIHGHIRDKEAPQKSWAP
T1 sequence (P04070 43-197): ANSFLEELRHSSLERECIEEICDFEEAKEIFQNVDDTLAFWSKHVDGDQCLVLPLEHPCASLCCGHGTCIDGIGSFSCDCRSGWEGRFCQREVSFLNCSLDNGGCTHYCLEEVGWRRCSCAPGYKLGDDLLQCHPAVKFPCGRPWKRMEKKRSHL

## recombinant (Arg^358)α1 -AT: recombinant mutant α1-antitrypsin with Met358 substituted by Arg, pseudosubstrate inhibitor of APC (Transgene)
[1]
  increase in the association rate for APC by substitution of Met358 by Arg: over 4400 fold
[2]
  calculated half-life for APC: 2 min
